Data from patent US20230398116A1, “Agent for reversing resistance to anticancer drugs” (Y'S AC CO., LTD., priority 2020, published 2023).

How the values were obtained:
[1] = tested on: phosphorylation of AKT, JNK, STAT3 and EphA3 in E0771 cells; assay: Western blotting of phosphorylation in E0771 cells; assay type: cell-based, mouse
Description: To analyze the phosphorylation of AKT, ERK, p38, JNK, STAT3, and EphA3, E0771 cells and HCC70 cells in 100 mm dishes were stimulated with IL-26 ([…]) and an anti-EphA3 polyclonal antibody (pAb) (10 μg/ml) for a specified period of time. After stimulation, the cells were lysed with a 2% protease inhibitor mixture (Sigma-Aldrich) and/or RIPA buffer added with 1×PhosSTOP (Roche Diagnostics, Tokyo, Japan), and a lysate was separated in a reduced state by SDS-PAGE (15 μg/lane). Immunoblots were performed using an anti-phosphorylated AKT antibody, an anti-phosphorylated ERK antibody, an anti-phosphorylated p38 antibody, an anti-phosphorylated JNK antibody, an anti-phosphorylated STAT3 antibody, and an anti-phosphorylated EphA3 antibody that recognize both human and mouse antigens. For reprobing, the membrane was immersed in a stripping buffer. After the stripping procedure, the membranes were re-probed with anti-pan-AKT, anti-pan-ERK, anti-pan-p38, anti-pan-JNK, anti-pan-STAT3, and anti-pan-EphA3 antibodies recognizing both human and mouse antigens. Images were taken using a C-Digit Blot scanner (MS Techno Systems, Inc., Japan).

E0771 cells = assay: In vivo TNBC transplantation model (E0771 in hIL-26Tg or control mice); set-up: species or system mouse
Description: E0771 cells (5×10^5) with 50% Matrigel were injected subcutaneously into the flank of hIL-26Tg mice or control mice. Tumor measurements were performed using caliper and volume was calculated using an equation (v=width×width×(length/2)). gefitinib was suspended in H2O with 1% tween (registered trademark) 80 for oral administration (50 mg/kg). Ten days after injection of E0771 cells, the oral administration once a day was performed 5 times a week. As a control, 1% tween (registered trademark) 80 containing H2O without Gefiinib was administered. The monoclonal antibody (mAb) treatment was performed by diluting anti-IL-26 mAb (clone 69-10) (Hatano R et al., MAbs (2019) 1-15, and JP 2009-99492 A) or mouse IgG1 isotype control to 1 mg/ml with sterile PBS, and by intraperitoneal injection of 200 μl (200 μg) once a day twice a week starting on day 10 after E0771 cell injection. Mice were sacrificed until subcutaneous tumor size reached 1600 mm^3. E0771 and HCC70 cells (1×10^5) were cultured for 24 hours in RPMI1640 medium with 10% FCS on Lab-Tek chamber slides (Thermo Fisher Scientific). […] Subcutaneous tumor samples obtained from mice were fixed in 4% paraformaldehyde (Thermo Fisher Scientific) and embedded in OCT compound (Tissue-Tek (registered trademark), Sakura Finetek, Japan). Cells and slides were immunostained with each antibody and observed using a Zeiss inverted microscope and Axiovision 2.0 program (Carl Zeiss, Germany). The fluorescence intensity was quantified with Image-J software (NIH). The images were captured using a 100×400× objective.

IL-26 [2] = biological target: T1, IL-26 (Homo sapiens, UniProt Q9NPH9); assay: ICAM-1 expression analysis of COLO205 (neutralizing activity of IL-26); assay type: cell-based; set-up: host or cells: added exogenously to COLO205 cells; conditions: COLO205, recombinant human IL-26 monomer 20 ng/mL, 24 hours, flow cytometry (MFI)
T1 sequence (Q9NPH9 22-171): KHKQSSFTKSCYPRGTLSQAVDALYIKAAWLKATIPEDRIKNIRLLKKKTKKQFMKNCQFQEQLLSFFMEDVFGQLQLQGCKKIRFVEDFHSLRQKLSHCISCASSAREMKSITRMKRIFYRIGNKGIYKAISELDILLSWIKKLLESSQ
Description: COLO205 was seeded at 5×10^4 cells/well in a 96-well flat bottom plate, and stimulated with recombinant human IL-26 monomer (20 ng/mL) in the presence or absence of control human IgG or anti-human IL-26 antibody. After 24 hours of culture, the cells were collected and washed with ice-cold PBS (FCM buffer) containing 1% FBS and 0.1% sodium azide. Thereafter, a solution prepared by diluting a PE-labeled mouse anti-human ICAM-1 monoclonal antibody (clone 15.2, catalog number 50-0549-T100) of Bay bioscience (Kobe, Japan) or a PE-labeled mouse Igl,k isotype control monoclonal antibody (clone MOPC-21, catalogue number 400114) of BioLegend with FCM buffer to 5 μg/mL, was added at 50 μL/sample, and the mixture was allowed to stand at 4° C. for 25 minutes. Thereafter, the cells were washed with ice-cold FCM buffer, then measured with FACSCalibur, and the obtained data was analyzed with FlowJo.

IL-26 [3] = biological target: T1, IL-26; assay: MTT assay of HUVECs stimulated with IL-26 (neutralizing activity of IL-26); assay type: cell-based; set-up: purchased R&D Systems; host or cells: added exogenously to HUVECs; conditions: HUVECs, IL-26 10 ng/mL, 48 hours, MTT assay
Description: Human and mouse breast cancer cells (1×10^4) were cultured in 10% FCS containing RPMI1640 medium on a 96-well flat bottom plate (Corning, Tewksbury, MA) at 37° C. for 24 hours, and then stimulated with IL-26 for 48 hours in the presence or absence of EGFR-TKI (gefitinib or erlotinib) at various concentrations, a signal inhibitor, and a neutralizing antibody. HUVECs were seeded in a 96-well flat bottom plate at 5×10^3 cells/well in a 2% FBS-containing EGM medium in which growth factors were reduced by half, and cultured at 37° C. for 12 hours. Thereafter, the medium was aspirated, and a recombinant human IL-26 dimer was adjusted to a final concentration of 10 ng/mL in a 2% FBS-containing EGM medium containing no growth factors, and added to the cells. The stimulation was started in the presence or absence of control human IgG and anti-human IL-26 antibodies, and the cells were cultured for 48 hours. Thereafter, a concentration of 20 μl or 1/10 of a 5 mg/ml MTT solution (Tetrazolium monosodium salt, WST-8) was added to each well, and the plate was allowed to stand for 1 hour. The absorbance at 450 nm/595 nm was measured using Microplate Reader (Bio-Rad, Hercules, CA) and data was analyzed with Microplate Manager 6 software (Bio-Rad).

## COc1cc2ncnc(Nc3ccc(F)c(Cl)c3)c2cc1OCCCN1CCOCC1 [gefitinib, Gefitinib, reference compound]
[1]; E0771, gefitinib 20 μM, FIG. 24B
  AKT and JNK phosphorylation under gefitinib: suppression of AKT and JNK phosphorylation
E0771 cells; gefitinib-treated WT and hIL-26Tg mice compared to vehicle-treated, FIG. 40
  number of Ly6G+ granulocytes infiltrating TME: significantly increased
E0771 cells; gefitinib-treated WT mice, tumor resected 14 days after inoculation, FIG. 41
  phosphorylation of AKT in tumor cells: strongly suppressed
E0771 cells; gefitinib-treated WT mice, tumor resected 14 days after inoculation, FIG. 42
  phosphorylation of JNK in tumor cells: strongly suppressed
E0771 cells; hIL-26Tg mice, gefitinib 50 mg/kg oral gavage, FIG. 35
  tumor growth in hIL-26Tg mice: tumor suppression by gefitinib was significantly inhibited
E0771 cells; littermate control (WT) mice, gefitinib 50 mg/kg oral gavage once a day, five times a week, FIG. 35
  tumor growth in control mice: suppressed

B1: 69-10: mouse anti-human IL-26 monoclonal antibody, clone 69-10, from deposited hybridoma (antibody, V domains shown)
VH: QVTLKESGPGILKPSQTLSLTCSFSGFSLSTSGMGVGWIRQPSGKGLEWLAHIWWDDDKYYNPSLKSQLTISKDTSRNQVFLKITSVDTADTATYYCVRGGITATHYYAMDYWGQGTSVTVSS
VL: DIQMTQSPASQSASLGESVTISCLASQTIGTWLSWYQQKPGKSPQLLIYAATSLADGVPSRFSGSGSGTKFSFKISSLQAEDFVSYYCQQLYSSPWTFGGGTKLEIK
IL-26 [2]
  inhibition of IL-26-enhanced expression of ICAM-1: partially inhibited
E0771 cells; hIL-26Tg mice, clone 69-10 200 μg/dose i.p. twice a week with gefitinib, compared to gefitinib alone, FIG. 36
  tumor growth, anti-IL-26 mAb and gefitinib: significantly reduced
E0771 cells; hIL-26Tg mice, not illustrated
  tumor growth, anti-IL-26 mAb alone: no effect on tumor growth
IL-26 [3]
  inhibitory effect of IL-26 (IL-26-promoted proliferation of HUVECs): not inferior to that of the commercially available goat anti-human IL-26 polyclonal antibody

B2: IL-26: recombinant human IL-26 dimers for cell stimulation, R&D Systems (protein)
chain: KHKQSSFTKSCYPRGTLSQAVDALYIKAAWLKATIPEDRIKNIRLLKKKTKKQFMKNCQFQEQLLSFFMEDVFGQLQLQGCKKIRFVEDFHSLRQKLSHCISCASSAREMKSITRMKRIFYRIGNKGIYKAISELDILLSWIKKLLESSQ
[1]; E0771, IL-26 30 ng/ml, 0 to 60 minutes, FIG. 24A
  phosphorylation of EphA3: induced dephosphorylation of EphA3
[1]; E0771, IL-26 30 ng/ml, FIG. 5E
  AKT and JNK phosphorylation: activated AKT and JNK phosphorylation
  STAT3 activation: did not activate STAT3
